Results from patent US20190352387A1 (Chugai, published 2019).
Each block holds one binder with its values, some of them ahead of it.

Tests used:
[1] = molecular target: T1, Recombinant human sclerostin (human, UniProt Q9BQB4 24-213); test: SPR; captured antibody, recombinant human SOST as analyte; response normalised by the capture level of the antibody [panel abL081]
T1 construct: Whole entry as named; Secreted recombinant protein purified from FreeStyle293-F conditioned medium; also called human-SOST; Human SOST
T1 sequence: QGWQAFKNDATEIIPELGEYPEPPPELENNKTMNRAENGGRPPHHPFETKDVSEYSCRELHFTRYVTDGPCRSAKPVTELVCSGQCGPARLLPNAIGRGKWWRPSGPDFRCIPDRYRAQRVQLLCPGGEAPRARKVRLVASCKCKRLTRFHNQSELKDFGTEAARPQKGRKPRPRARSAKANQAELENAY

[2] = molecular target: T1, Recombinant human sclerostin; test: SPR; captured antibody, recombinant human SOST as analyte; response normalised by the capture level of the antibody [panel abL083]
[3] = molecular target: T1, Recombinant human sclerostin; test: SPR; captured antibody, recombinant human SOST as analyte; response normalised by the capture level of the antibody [panel abL063]

binding result [1]: binds
B1: mabB heavy chain combined with light chain variant abL081 (antibody, human IgG1, kappa, V domains shown)
VH: QVQLVQSGAEVKKPGASVKVSCKVSGFPIKDTFQHWVRQAPGKGLEWMGWSDPEIGDTEYASKFQGRVTMTEDTSTDTAYMELSSLRSEDTAVYYCATGDTTYKFDFWGQGTTVTVSS
VL: DIQMTQSPSSLSASVGDRVTITCRASQDIHTYLAWYQQKPGKAPKLLIYWASTRWSGVPSRFSGSGSGTDFTLTISSLQPEDFATYYCQQGDTLPYTFGGGTKVEIKR
notes: also called abL081 with the mabB heavy chain

binding result [2]: binds
B2: mabB heavy chain combined with light chain variant abL083 (antibody, human IgG1, kappa, V domains shown)
VH: QVQLVQSGAEVKKPGASVKVSCKVSGFPIKDTFQHWVRQAPGKGLEWMGWSDPEIGDTEYASKFQGRVTMTEDTSTDTAYMELSSLRSEDTAVYYCATGDTTYKFDFWGQGTTVTVSS
VL: DIQMTQSPSSLSASVGDRVTITCRASQDIHTYLAWYQQKPGKAPKLLIYWASTRLSGVPSRFSGSGSGTDFTLTISSLQPEDFATYYCQQGDTLPYTFGGGTKVEIKR
notes: also called abL083 with the mabB heavy chain

binding result [3]: binds
B3: mabB heavy chain combined with light chain variant abL063 (antibody, human IgG1, kappa, V domains shown)
VH: QVQLVQSGAEVKKPGASVKVSCKVSGFPIKDTFQHWVRQAPGKGLEWMGWSDPEIGDTEYASKFQGRVTMTEDTSTDTAYMELSSLRSEDTAVYYCATGDTTYKFDFWGQGTTVTVSS
VL: DIQMTQSPSSLSASVGDRVTITCRASQDISTALAWYQQKPGKAPKLLIYWASTLWSGVPSRFSGSGSGTDFTLTISSLQPEDFATYYCQQGDTLPYTFGGGTKVEIKR
notes: also called abL063 with the mabB heavy chain
